Data set [1] in a line: In vitro drug release from preformed photocrosslinked implants (PPcI) in PBS. The class given is physicochemical. The settings on record: PPcI 30% w/w PLGA 75/25 / PEGDA 700, 5 runs, lamp intensity 100%, after 266 days.
Method: (§1) For drug release studies selected ISPcI gel formulation were injected (approx. 0.2 g or 0.1 g) into desired amount of PBS (pH 7.3±0.2). Sink conditions were maintained for each drug type. ISPcI were formed by exposing them immediately to 365 nm using bench-top UV light (at 3.1±0.1 mW/cm^2, CAMAG, Muttenz, Switzerland) for varying periods of time in PBS. The implants were stored in an incubator (37° C. and 60 rpm) for the duration of the release study. At predetermined time intervals the entire PBS medium was removed and replaced with equal amount of fresh PBS. All the experiments were carried out in triplicates. The concentration of released drug molecule in the PBS samples was analyzed as described below.
Analysis of DEX and TA samples were carried out using reversed-phase HPLC with UV detection (Agilent 1260 Infinity Quaternary System) using an Agilent Zorbax Eclipse Plus 250 mm C18 column (250 mm length, 4.6 mm internal diameter and 5 μm particle size) and an Agilent Zorbax guard column held at 25° C. […] Analysis required a mobile phase of 60% water and 40% acetonitrile with UV absorbance at 270 nm (for DEX) and 236 nm (for TA) at a flow rate of 1 ml/min and 0.8 ml/min respectively. Analysis of FITC-Dextran 150 kDa release was conducted using a fluorescence spectrophotometer. […] Fluorescence excitation occurred at 480 nm with emission measured at 520 nm. […]
Data set [2] in a line: In vitro drug release from in situ photocrosslinked implants (ISPcI) in PBS.
Method: as §1
BSA, OVA and bevacizumab (Avastin) were assayed using a Pierce™ Micro BCA protein assay kit (Thermo Scientific, Hampton, UK). To a microwell, 150 μL of BSA, OVA or BVZ standard or release sample was pipetted and 150 μL of working reagent was added. A plate shaker ensured thorough mixing. The 96-well plate was covered and incubated for 2 hours at 37° C. Once the plate was allowed to return to room temperature, a UV plate reader measured the absorbance at 562 nm. The average absorbance reading of the blank was subtracted from those of the standards/samples.
A further data set concerns rat eye. In words: In vivo implant formation of ISPcI in rat eye following intravitreal injection. The settings on record: day 1, day 6 and day 18. The procedure: 2 μl of ISPcI gel formulation was injected by intravitreal route in the rat eye, following by UV light exposure for 2 min, fundus images were collected to locate the implant formation and image model dye release within the eye. Likewise PPcI were administered by subconjunctival route and any surface inflammation monitored by experienced ophthalmologist

Data set [3] can be described thus: ELISA test for bioactivity of OVA released from ISPcI. The note with it: released from ISPcI at 37±2° C., after 1 and 3 months. The procedure:
(Agilent Technologies UK Ltd, Stockport, UK). […] A plate shaker ensured thorough mixing.
Due to slow degradation rate of the crosslinked ISPcIs, the drastic drop in local pH is further delayed (unlike PLGA only implants) which is especially important and an advantage in protecting the sensitive molecules such as peptides and proteins. […] For example, an ELISA test was conducted to determine the bioactivity of released OVA from the ISPcI, at 37±2° C., after 1 and 3 months, respectively.

On to “Fluorescein isothiocyanate-dextran [FITC-Dextran 150 kDa]”, for which the “% release” value in data set [1] was around 27%.

On to Bevacizumab [BVZ], for which the results for the BVZ released in data set [2] (30% PLGA ISPcI implants UV crosslinked for 30 sec) and in data set [2] (30% PLGA ISPcI implants UV crosslinked for 2.5 min) were around 100% and “approximately 41%”, respectively.

On to `O=C1OC2(c3ccc(O)cc3Oc3cc(O)ccc32)c2ccccc21` [fluorescein sodium], for which, in the data set on rat eye, the “release of fluorescein sodium from ISPcI implant in the eye (fundus images)” value was “slow and continuous release”.

B1: ovalbumin (protein, UniProt P01012 2-386, looked up)
Ovalbumin: GSIGAASMEFCFDVFKELKVHHANENIFYCPIAIMSALAMVYLGAKDSTRTQINKVVRFDKLPGFGDSIEAQCGTSVNVHSSLRDILNQITKPNDVYSFSLASRLYAEERYPILPEYLQCVKELYRGGLEPINFQTAADQARELINSWVESQTNGIIRNVLQPSSVDSQTAMVLVNAIVFKGLWEKAFKDEDTQAMPFRVTEQESKPVQMMYQIGLFRVASMASEKMKILELPFASGTMSMLVLLPDEVSGLEQLESIINFEKLTEWTSSNVMEERKIKVYLPRMKMEEKYNLTSVLMAMGITDVFSSSANLSGISSAESLKISQAVHAAHAEINEAGREVVGSAEAGVDAASVSEEFRADHPFLFCIKHIATNAVLFFGRCVSP
notes: model protein molecule, Mw of 45 kDa
As for B1, the “OVA remained active (bioactivity of released OVA by ELISA)” value in data set [3] was around 97±2%.

(Values after patent US20230129084A1, “COMPOSITE IMPLANTS” (Re-Vana Therapeutics Ltd., priority 2015, published 2023).)
